The results in this text go back to paper PMC3077903 (Molecular microbiology, 2011).

The target in one data set is T1, MinD-D152A (E. coli, UniProt P0AEZ3 1-270, D152A).
T1 sequence (looked up): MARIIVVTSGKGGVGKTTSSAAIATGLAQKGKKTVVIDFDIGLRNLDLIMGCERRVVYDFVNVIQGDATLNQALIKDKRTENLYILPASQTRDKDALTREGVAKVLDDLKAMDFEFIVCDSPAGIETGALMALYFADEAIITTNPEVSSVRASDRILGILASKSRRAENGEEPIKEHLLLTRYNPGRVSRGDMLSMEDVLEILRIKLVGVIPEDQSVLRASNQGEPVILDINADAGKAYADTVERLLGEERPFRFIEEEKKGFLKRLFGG
The experiment in a line: two-hybrid.

For a further data set, the target named is T2, MinD (E. coli, UniProt P0AEZ3 1-270).
T2 sequence (looked up): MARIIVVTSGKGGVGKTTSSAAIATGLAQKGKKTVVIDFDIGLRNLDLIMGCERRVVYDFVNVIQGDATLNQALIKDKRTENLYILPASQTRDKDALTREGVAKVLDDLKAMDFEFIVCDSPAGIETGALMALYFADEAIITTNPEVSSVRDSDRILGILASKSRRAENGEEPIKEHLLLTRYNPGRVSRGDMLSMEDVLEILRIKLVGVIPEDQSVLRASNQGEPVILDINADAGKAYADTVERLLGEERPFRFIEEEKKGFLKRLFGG
The data set can be described thus: two-hybrid.

The data set “SEC” concerns the molecule itself. The data set can be described thus: SEC.

In the case of MALLDFFLSRKKNTANIAKERLQIIVAERRR (domain or fragment, E. coli, UniProt P0A734 1-31, looked up) [MinE^1-31], the “percent of the MinE-MinD β-galactosidase activity” value (“percent” for short) with MinD-D152A was determined as 8%; with MinD, 120%. Besides, the values for the β-galactosidase activity with MinD-D152A and with MinD were 28 units of β-galactosidase activity and 398 units of β-galactosidase activity, respectively.

B1: MinE (full length) (natural protein, E. coli, UniProt P0A734 1-88, looked up)
chain: MALLDFFLSRKKNTANIAKERLQIIVAERRRSDAEPHYLPQLRKDILEVICKYVQIDPEMVTVQLEQKDGDISILELNVTLPEAEELK
For the molecule B1, in the data set with MinD-D152A, the “percent” value stood at 44% and the β-galactosidase activity was 145 units of β-galactosidase activity. Further, in the data set with MinD, the “percent” value turned out to be 100%.

B2: MinDΔ10-D40A (domain or fragment, E. coli, UniProt P0AEZ3 1-260, looked up)
chain: MARIIVVTSGKGGVGKTTSSAAIATGLAQKGKKTVVIDFAIGLRNLDLIMGCERRVVYDFVNVIQGDATLNQALIKDKRTENLYILPASQTRDKDALTREGVAKVLDDLKAMDFEFIVCDSPAGIETGALMALYFADEAIITTNPEVSSVRDSDRILGILASKSRRAENGEEPIKEHLLLTRYNPGRVSRGDMLSMEDVLEILRIKLVGVIPEDQSVLRASNQGEPVILDINADAGKAYADTVERLLGEERPFRFIEEEK
One may read the stoichiometry N as a count of units in the complex or per binding partner. Regarding B2, the “stoichiometry N” value in the data set “SEC” was 2.
